Assay results from patent US20180044434A1 (PUBLIC UNIVERSITY CORPORATION YOKOHAMA CITY UNIVERSITY, published 2018).
Positions count from the first letter of the chain named.

B1: H7-derived, humanized anti-PAD4 antibody (IgG4A) (antibody)
heavy: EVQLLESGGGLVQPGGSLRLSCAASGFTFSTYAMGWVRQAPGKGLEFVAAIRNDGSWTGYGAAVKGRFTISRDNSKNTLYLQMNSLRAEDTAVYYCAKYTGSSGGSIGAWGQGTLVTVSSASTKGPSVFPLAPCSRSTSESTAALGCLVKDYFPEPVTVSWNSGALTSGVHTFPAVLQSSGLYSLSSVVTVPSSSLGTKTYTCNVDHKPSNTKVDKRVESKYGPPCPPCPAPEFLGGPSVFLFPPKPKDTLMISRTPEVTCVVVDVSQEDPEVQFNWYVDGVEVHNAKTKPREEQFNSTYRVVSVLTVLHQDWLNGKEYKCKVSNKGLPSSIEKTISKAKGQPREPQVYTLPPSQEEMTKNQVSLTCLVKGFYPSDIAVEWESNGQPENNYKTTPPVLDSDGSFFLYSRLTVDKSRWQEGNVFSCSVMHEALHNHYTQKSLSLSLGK
light: SYELTQPPSVSVSPGQTARITCSGGSGRYYYGWYQQKPGQAPVTVIYSSTHRPSGIPERFSGSNSGSTTTLTISGVQAEDEADYYCGTADSSSYVFGGGTKLTVLGQPKAAPSVTLFPPSSEELQANKATLVCLISDFYPGAVTVAWKADSSPVKAGVETTTPSKQSNNKYAASSYLSLTPEQWKSHRSYSCQVTHEGSTVEKTVAPTECS
notes: it may be this one; also called humanized anti-PAD4 antibody (IgG4A) derived from H7
B2: Humanized Ab #H7-H4.00/L4.29 (antibody, human IgG1, kappa)
heavy: not shown
light: SYELTQPPSVSVSPGQTARITCSGGSGRYYYGWYQQKPGQAPVTVIYSSTHRPSGIPERFSGSNSGSTTTLTISGVQAEDEADYYCGTADSSSYVFGGGTKLTVLGTVAAPSVFIFPPSDEQLKSGTASVVCLLNNFYPREAKVQWKVDNALQSGNSQESVTEQDSKDSTYSLSSTLTLSKADYEKHKVYACEVTHQGLSSPVTKSFNRGEC
notes: also called humanized anti-PAD4 antibody derived from H7 (IgG1 kappa)
B3: Humanized Ab #G8-H4.00/L4.29 (antibody, human IgG1, kappa, V domains shown)
VH: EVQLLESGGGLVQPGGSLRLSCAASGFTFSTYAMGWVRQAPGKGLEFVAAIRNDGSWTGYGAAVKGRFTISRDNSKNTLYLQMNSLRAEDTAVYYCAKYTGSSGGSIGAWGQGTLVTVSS
VL: SYELTQPPSVSVSPGQTARITCSGGNRNYYYGWYQQKPGQAPVTVIYANDKRPSGIPERFSGSNSGSTTTLTISGVQAEDEADYYCGTADTGKYVFGGGTKLTVLG
notes: also called humanized anti-PAD4 antibody derived from G8 (IgG1 kappa); G8 VH H4.00 / VL L4.29
B4: humanized anti-PAD4 antibody derived from A11 (H4.00/L4.29, IgG1 kappa) (antibody, V domains shown)
VH: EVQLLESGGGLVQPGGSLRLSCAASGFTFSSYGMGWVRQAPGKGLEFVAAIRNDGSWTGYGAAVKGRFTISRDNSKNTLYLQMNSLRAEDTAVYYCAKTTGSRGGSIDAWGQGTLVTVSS
VL: SYELTQPPSVSVSPGQTARITCSGGGRYYYGWYQQKPGQAPVTVIYANDKRPSGIPERFSGSNSGSTTTLTISGVQAEDEADYYCGSAETSSYVFGGGTKLTVLG
notes: also called humanized A11
B5: humanized anti-PAD4 antibody derived from G9 (H4.00/L4.29, IgG1 kappa) (antibody, V domains shown)
VH: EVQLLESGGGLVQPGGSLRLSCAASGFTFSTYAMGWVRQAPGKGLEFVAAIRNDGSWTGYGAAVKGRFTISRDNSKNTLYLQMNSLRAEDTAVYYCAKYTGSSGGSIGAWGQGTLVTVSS
VL: B4 VL
notes: also called humanized G9
B6: humanized anti-PAD4 antibody derived from G8, VH H4.00 / VL L4.00 (antibody, human IgG1, kappa, V domains shown)
VH: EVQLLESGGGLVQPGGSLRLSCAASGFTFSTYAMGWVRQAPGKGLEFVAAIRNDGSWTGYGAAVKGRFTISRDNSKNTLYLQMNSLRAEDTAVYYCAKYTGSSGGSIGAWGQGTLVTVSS
VL: B3 VL with T44L, N64S, S67T, T69V
notes: IgG1 kappa; also called G8 H4.00/L4.00
B7: humanized anti-PAD4 antibody derived from G8, VH H4.32 / VL L4.00 (antibody, IgG1, V domains shown)
VH: EVQLLESGGGLVQPGGSLRLSCAASGFTFSTYAMGWVRQAPGKGLEFVAAIRNDGSWTGYGAAVKGRVTISRDNSKNTVYLQMNSLRAEDTAVYYCAKYTGSSGGSIGAWGQGTLVTVSS
VL: B3 VL with T44L, N64S, S67T, T69V
notes: IgG1 kappa; also called G8 H4.32/L4.00
B8: humanized anti-PAD4 antibody derived from G8, VH H4.32 / VL L4.29 (antibody, IgG1, V domains shown)
VH: B7 VH
VL: B3 VL
notes: IgG1 kappa; also called G8 H4.32/L4.29
B9: humanized anti-PAD4 antibody derived from G8, VH H4.15 / VL L4.00 (antibody, human IgG1, kappa, V domains shown)
VH: B7 VH with A49S, V68F
VL: B3 VL with T44L, N64S, S67T, T69V
notes: IgG1 kappa; also called G8 H4.15/L4.00
B10: humanized anti-PAD4 antibody derived from G8, VH H4.32 / VL L4.17 (antibody, IgG1, V domains shown)
VH: B7 VH
VL: B3 VL with N64T, S67N
notes: IgG1 kappa; also called G8 H4.32/L4.17
B11: humanized anti-PAD4 antibody derived from G8, VH H4.15 / VL L4.17 (antibody, human IgG1, kappa, V domains shown)
VH: B7 VH with A49S, V68F
VL: B3 VL with N64T, S67N
notes: IgG1 kappa; also called G8 H4.15/L4.17
B12: humanized anti-PAD4 antibody derived from G8, VH H4.15 / VL L4.06 (antibody, human IgG1, kappa, V domains shown)
VH: B7 VH with A49S, V68F
VL: B3 VL with N64Y, S67N
notes: IgG1 kappa; also called G8 H4.15/L4.06
B13: humanized anti-PAD4 antibody derived from G8, VH H4.15 / VL L4.29 (antibody, human IgG1, kappa, V domains shown)
VH: B7 VH with A49S, V68F
VL: B3 VL
notes: IgG1 kappa; also called G8 H4.15/L4.29
B14: humanized anti-PAD4 antibody derived from G8, VH H4.32 / VL L4.06 (antibody, IgG1, V domains shown)
VH: B7 VH
VL: B3 VL with N64Y, S67N
notes: IgG1 kappa; also called G8 H4.32/L4.06
B15: humanized anti-PAD4 antibody derived from H7, VH H4.32 / VL L4.15 (antibody, IgG1, V domains shown)
VH: B7 VH
VL: SYELTQPPSVSVSPGQTARITCSGGSGRYYYGWYQQKPGQAPVTVIYSSTHRPSGIPERFSGSNSGNTTTLTISGVQAEDEADYYCGTADSSSYVFGGGTKLTVLG
notes: IgG1 kappa; also called H7 H4.32/L4.15
B16: humanized anti-PAD4 antibody derived from H7, VH H4.32 / VL L4.17 (antibody, IgG1, V domains shown)
VH: B7 VH
VL: B15 VL with N64T
notes: IgG1 kappa; also called H7 H4.32/L4.17

What follows are binders tested against T1, full-length recombinant human PAD4 (human, UniProt Q9UM07 1-663) (assay: ELISA, immobilized human PAD4).
T1 construct: Full-length recombinant; also called peptidylarginine deiminase 4
T1 sequence (Q9UM07 whole entry): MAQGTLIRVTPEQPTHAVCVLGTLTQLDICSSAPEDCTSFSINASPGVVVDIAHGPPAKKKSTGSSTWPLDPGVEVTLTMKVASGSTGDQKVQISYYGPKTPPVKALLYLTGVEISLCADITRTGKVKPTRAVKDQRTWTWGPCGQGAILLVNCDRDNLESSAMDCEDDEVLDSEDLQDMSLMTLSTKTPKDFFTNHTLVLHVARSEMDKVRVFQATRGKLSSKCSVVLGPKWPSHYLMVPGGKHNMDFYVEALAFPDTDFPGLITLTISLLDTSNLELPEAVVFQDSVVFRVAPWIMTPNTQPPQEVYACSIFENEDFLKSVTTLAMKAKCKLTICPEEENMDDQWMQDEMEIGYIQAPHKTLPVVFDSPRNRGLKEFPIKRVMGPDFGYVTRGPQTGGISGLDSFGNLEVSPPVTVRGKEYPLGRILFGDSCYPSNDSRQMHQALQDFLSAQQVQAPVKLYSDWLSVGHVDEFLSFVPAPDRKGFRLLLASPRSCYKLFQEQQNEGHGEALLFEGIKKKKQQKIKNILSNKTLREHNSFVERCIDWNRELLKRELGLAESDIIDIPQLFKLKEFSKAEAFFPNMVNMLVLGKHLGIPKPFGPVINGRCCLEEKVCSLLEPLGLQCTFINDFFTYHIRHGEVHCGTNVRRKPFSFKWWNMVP

EC50 (read off the curve) | Binder
~4 ng/mL | B1

Target: T1, full-length recombinant human PAD4
Assay: ELISA, immobilized human PAD4
Remark: another data set of the same source

EC50 (read off the curve) | O.D. 490/630 at 0 µg/mL (blank) | O.D. 490/630 at 0.000064 µg/mL | O.D. 490/630 at 0.00032 µg/mL | O.D. 490/630 at 0.0016 µg/mL | O.D. 490/630 at 0.008 µg/mL | O.D. 490/630 at 0.04 µg/mL | O.D. 490/630 at 0.2 µg/mL | O.D. 490/630 at 1 µg/mL | Binder
~3 ng/mL | 0.083 | 0.13 | 0.269 | 0.766 | 1.72 | 2.1 | 2.07 | 2.08 | B2
~2 ng/mL | 0.069 | 0.139 | 0.287 | 0.851 | 1.79 | 2.12 | 2.1 | 2.06 | B3
~3 ng/mL | 0.064 | 0.122 | 0.245 | 0.733 | 1.7 | 2.08 | 2.08 | 2.08 | B4
~3 ng/mL | 0.069 | 0.116 | 0.252 | 0.785 | 1.66 | 2.09 | 2.03 | 2.06 | B5

What follows are binders tested against T1, full-length recombinant human PAD4 (assay: SPR (Biacore T200), antibody captured, human PAD4 analyte).
Source text: The humanized anti-PAD4 antibodies derived from G8 and H7 were subjected to Biacore (GE Healthcare, Biacore T200) assay to evaluate their affinity. At that time, the combination of the frameworks was such that the H-chain framework was H4.00 and the L-chain framework was L4.29. The class of each antibody used was IgG1κ. Full-length recombinant human PAD4 was used as an antigen. A Human Antibody Capture kit (GE Healthcare, BR-1008-39) was used for the affinity assay. Specifically, in accordance with the standard protocol provided by the manufacture, NHS/EDC was used and an amine coupling method, in which a free carboxyl group is fixed on a surface of a CM5 chip, was used to immobilize a rabbit anti-human polyclonal antibody on the surface of a CM5 chip. Next, the humanized anti-PAD4 antibodies were each captured by the rabbit anti-human polyclonal antibody. Human PAD4 at each concentration was subjected to Biacore T200 measurement to create a kinetic sensorgram.

Kd | koff | kon | Binder
8.28 nM | 0.000507 s⁻¹ | 61300 M⁻¹ s⁻¹ | B2
1.95 nM | 0.0002 s⁻¹ | 103000 M⁻¹ s⁻¹ | B3

Target: T1, full-length recombinant human PAD4
Assay: ELISA, immobilized human PAD4
Remark: another data set of the same source

O.D. 490/630 at 0.0078125 µg/mL | O.D. 490/630 at 0.015625 µg/mL | O.D. 490/630 at 0.03125 µg/mL | O.D. 490/630 at 0.0625 µg/mL | O.D. 490/630 at 0.125 µg/mL | O.D. 490/630 at 0.25 µg/mL | O.D. 490/630 at 0.5 µg/mL | O.D. 490/630 at 1 µg/mL | Binder
0.131 | 0.247 | 0.454 | 0.806 | 1.31 | 1.7 | 1.84 | 1.88 | B6
0.364 | 0.649 | 1.05 | 1.52 | 1.76 | 1.84 | 1.91 | 1.87 | B7
1.26 | 1.69 | 1.88 | 1.9 | 1.89 | 1.85 | 1.84 | 1.84 | B8
0.707 | 1.11 | 1.52 | 1.84 | 1.87 | 1.87 | 1.86 | 1.85 | B9
1.2 | 1.56 | 1.83 | 1.88 | 1.89 | 1.83 | 1.83 | 1.82 | B10
1.24 | 1.66 | 1.86 | 1.93 | 1.87 | 1.81 | 1.82 | 1.83 | B11
1.31 | 1.68 | 1.9 | 1.92 | 1.91 | 1.87 | 1.79 | 1.77 | B12
1.15 | 1.56 | 1.85 | 1.91 | 1.86 | 1.86 | 1.81 | 1.84 | B13
1.21 | 1.6 | 1.82 | 1.91 | 1.86 | 1.85 | 1.81 | 1.79 | B14
1.2 | 1.55 | 1.88 | 1.88 | 1.85 | 1.84 | 1.82 | 1.8 | B3
1.34 | 1.77 | 1.89 | 1.94 | 1.87 | 1.84 | 1.78 | 1.79 | B15
1.28 | 1.77 | 1.95 | 1.98 | 1.86 | 1.86 | 1.81 | 1.79 | B16

Target: T1, full-length recombinant human PAD4
Assay: ELISA, immobilized human PAD4
Remark: another data set of the same source

EC50 (read off the curve) | Binder
~80 ng/mL | B6
